B1: PfHsp20b (natural protein, Plasmodium falciparum, UniProt Q8IB02 1-172, looked up)
chain: MSCLCAGSTDQGEMKMAPPDYRIDIKEKPSIPKSKNALVNPNTVLEIEPDNNLKKQITFRPKVDIMYDADKCEAILVLDIPGFKIEDIDVEIGEGMLTVAGPRSQTELFETYGDSLVLHAKEREVGYFKRIFKLPNNILDDTAKATYKNGILEIKMECKQFSDMHKVTINQG
notes: Codon-harmonised synthetic gene in pQE30 between BamHI and HindIII; forms oligomers in solution by DLS; also called PF3D7_0816500; P. falciparum Hsp20; source: E. coli XL1 Blue, purified (IMAC)
B2: PfHsp20a (natural protein, Plasmodium falciparum, UniProt Q8IES0 1-211, looked up)
chain: MSENNLSKDNNKNKRNEALENAGMLDTFFESMYDHMNRLDQYHSDMNRMMNSLRGYYMNNDFFRFFPNRRSLTDYDINRNRNHDLLLSKPFSSMFRRDGYSNVPAMDVLDKEKHLEIKMDVPGLNKEDVQINLDDGKLEISGEFKKSHEQKDEQQRYYIKERCESSFYRSFTLPENVSEDEIKATFKDGVLKIDIPKKDIPDKKKKKIEID
notes: Codon-harmonised synthetic gene in pQE30 between BamHI and HindIII; forms large oligomers in solution by DLS; also called PF3D7_1304500; P. falciparum Hsp20; source: E. coli XL1 Blue, purified (IMAC)
B3: PfHsp20c (natural protein, Plasmodium falciparum, UniProt Q8I5T9 1-231, looked up)
chain: MSTTNILKPKIIIESSKEQGVGEKRSSTLSAPFEKNMFSTYSYSNPISNMRSSTHNEYKYNWTKYVNSSQIPHVDEYIKTFEGPNTTYYYETIPLKTNTNNIFEITPSQEELSRISYNPKIEIYSTCDFAVLMMDIPGVSKENLKVELEKGLLKVYGNKYKPHIEELEKRNEYHTKIIERLNEYYFCKIFQMPPAFSEGQNISCKLNNGELLVKILANELKTQKKVIDIQS
notes: Codon-harmonised synthetic gene in pQE30 between BamHI and HindIII; forms large oligomers in solution by DLS; also called PF3D7_1211100; P. falciparum Hsp20; source: E. coli XL1 Blue, purified (IMAC)

Columns and labels:
PfHsp20b = target: T1, PfHsp20b (Plasmodium falciparum, UniProt Q8IB02); assay: inhibition of chaperone activity (suppression of heat-induced MDH/CS aggregation); CD, DSF and DLS shifts also measured; assay type: biochemical
T1 construct: gene PF3D7_0816500; full-length, residues 1–173, N-terminal 6xHis
T1 sequence (Q8IB02 1-172): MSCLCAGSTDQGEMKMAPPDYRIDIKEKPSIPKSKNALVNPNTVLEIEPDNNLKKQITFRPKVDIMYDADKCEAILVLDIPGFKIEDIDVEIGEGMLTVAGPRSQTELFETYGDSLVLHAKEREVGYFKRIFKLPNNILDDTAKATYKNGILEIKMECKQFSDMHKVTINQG

PfHsp20c = target: T2, PfHsp20c (Plasmodium falciparum, UniProt Q8I5T9); assay: as above; assay type: biochemical
T2 construct: gene PF3D7_1211100; full-length, residues 1–231, N-terminal 6xHis

PfHsp20a = target: T3, PfHsp20a (Plasmodium falciparum, UniProt Q8IES0); assay: as above; assay type: biochemical
T3 construct: gene PF3D7_1304500; full-length, residues 1–211, N-terminal 6xHis

[1] = target: the molecule itself; assay: dynamic light scattering; 0-6 uM protein alone in 20 mM Tris pH 7.4, 300 mM NaCl, 25 °C; oligomer size estimated from the average hydrodynamic radius with the fluidic webserver
[2] = target: the molecule itself; assay: dynamic light scattering; as a1 but in the presence of 3 uM quercetin; 20 mM Tris pH 7.4, 300 mM NaCl, 25 °C; oligomer size estimated from the hydrodynamic radius

Row | Molecule | IC50 (PfHsp20b) | IC50 (PfHsp20c) | IC50 (PfHsp20a) | stoichiometry N [1] | stoichiometry N [2]
1 | O=c1c(O)c(-c2ccc(O)c(O)c2)oc2cc(O)cc(O)c12 [quercetin, 3,3′,4′,5,7-pentahydroxyflavone] | 0.55 ± 0.1 µM | 0.11 ± 0.07 µM | 0.32 ± 0.11 µM |  | 
2 | B1 |  |  |  | ~38 | 37
3 | B2 |  |  |  |  | 40
4 | B3 |  |  |  |  | 35

From publication PMC12457548, “Comparative Characterization of Plasmodium falciparum Small Heat Shock Proteins and Their Inhibition by Quercetin (3,3′,4′,5,7-Pentahydroxyflavone)” (The Protein Journal, 2025)
